Experiments:
AncSZ = assay: phosphorylation enrichment, bacterial display (enrichment ratio); higher = better substrate or ligand; peptides without Tyr show the background
EPHB1 = EPHB1 (UniProt P54762); assay: as above
EPHB2 = EPHB2 (UniProt P29323); assay: as above
FGFR1 = FGFR1 (UniProt P11362); assay: as above
FGFR3 = FGFR3 (UniProt P22607); assay: as above
Fer (mouse) = assay: as above
Fes = Fes (UniProt P07332); assay: as above
Fyn = Fyn (UniProt P06241); assay: as above
Hck = Hck (UniProt P08631); assay: as above
Sequence of Hck (P08631 whole entry, looked up): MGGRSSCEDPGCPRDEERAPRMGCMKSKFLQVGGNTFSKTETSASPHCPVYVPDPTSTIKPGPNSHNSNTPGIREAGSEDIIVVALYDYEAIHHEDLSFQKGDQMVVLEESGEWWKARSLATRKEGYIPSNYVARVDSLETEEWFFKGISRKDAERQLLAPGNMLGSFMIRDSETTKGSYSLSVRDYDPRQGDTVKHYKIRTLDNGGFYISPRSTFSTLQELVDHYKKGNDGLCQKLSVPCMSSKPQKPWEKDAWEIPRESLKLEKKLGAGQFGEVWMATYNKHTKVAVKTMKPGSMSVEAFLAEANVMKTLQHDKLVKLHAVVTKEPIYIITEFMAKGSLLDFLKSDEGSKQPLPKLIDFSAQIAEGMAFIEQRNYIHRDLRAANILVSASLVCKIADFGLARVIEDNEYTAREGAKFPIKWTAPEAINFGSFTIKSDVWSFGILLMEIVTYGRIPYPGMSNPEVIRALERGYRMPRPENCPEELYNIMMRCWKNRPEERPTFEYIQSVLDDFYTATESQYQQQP

Jak2 = Jak2 (UniProt O60674); assay: as above
MERTK = MERTK (UniProt Q12866); assay: as above
c-Abl (mouse) = assay: as above
c-Src = assay: as above
Grb2 SH2 = Grb2 SH2 (UniProt P62993); assay: SH2 binding enrichment of the phosphorylated peptide, bacterial display (enrichment ratio); higher = better substrate or ligand; peptides without Tyr show the background
SHP2-C SH2 = assay: as above
c-Src SH2 = assay: as above
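Throughout, for SH2 binding enrichment of the phosphorylated peptide, bacterial display: peptide library displayed on the E. coli surface as eCPX fusions, selected cells deep-sequenced, score is each peptide's frequency after selection divided by its frequency in the input.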
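Throughout, for phosphorylation enrichment, bacterial display: 11-residue human phosphosite peptides and single-mutation variants displayed on the E. coli surface, counted by deep sequencing, each peptide's frequency after selection divided by its frequency in the unselected input library; frequency after pTyr selection over input frequency; kinase dosed for 20-30% of maximal phosphorylation in three min.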

Sequence of EPHB1 (P54762 whole entry, looked up): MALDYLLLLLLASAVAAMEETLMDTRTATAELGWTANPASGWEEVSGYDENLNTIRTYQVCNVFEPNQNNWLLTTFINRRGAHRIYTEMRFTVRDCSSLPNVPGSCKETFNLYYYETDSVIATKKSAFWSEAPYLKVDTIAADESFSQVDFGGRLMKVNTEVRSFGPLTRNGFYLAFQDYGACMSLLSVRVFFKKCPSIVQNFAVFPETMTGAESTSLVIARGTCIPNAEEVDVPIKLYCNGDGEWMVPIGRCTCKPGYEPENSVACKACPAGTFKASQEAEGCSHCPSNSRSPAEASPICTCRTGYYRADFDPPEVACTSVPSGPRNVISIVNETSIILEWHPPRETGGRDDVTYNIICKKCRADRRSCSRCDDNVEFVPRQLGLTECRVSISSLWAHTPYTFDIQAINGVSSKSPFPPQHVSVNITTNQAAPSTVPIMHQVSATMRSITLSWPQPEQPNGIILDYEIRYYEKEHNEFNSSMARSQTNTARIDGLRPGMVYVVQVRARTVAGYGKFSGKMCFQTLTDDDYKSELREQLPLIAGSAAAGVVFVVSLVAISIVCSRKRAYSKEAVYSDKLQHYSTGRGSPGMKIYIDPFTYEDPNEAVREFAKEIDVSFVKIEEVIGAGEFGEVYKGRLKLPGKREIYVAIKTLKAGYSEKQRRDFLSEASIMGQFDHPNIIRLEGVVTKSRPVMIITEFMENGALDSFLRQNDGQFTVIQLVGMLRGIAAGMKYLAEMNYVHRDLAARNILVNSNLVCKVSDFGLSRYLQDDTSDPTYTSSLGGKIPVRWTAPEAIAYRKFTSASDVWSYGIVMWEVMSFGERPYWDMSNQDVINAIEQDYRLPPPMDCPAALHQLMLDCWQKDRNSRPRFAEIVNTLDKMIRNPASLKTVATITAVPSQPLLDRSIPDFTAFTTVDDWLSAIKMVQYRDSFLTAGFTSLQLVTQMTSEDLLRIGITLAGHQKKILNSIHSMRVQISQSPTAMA
Sequence of Fes (P07332 whole entry, looked up): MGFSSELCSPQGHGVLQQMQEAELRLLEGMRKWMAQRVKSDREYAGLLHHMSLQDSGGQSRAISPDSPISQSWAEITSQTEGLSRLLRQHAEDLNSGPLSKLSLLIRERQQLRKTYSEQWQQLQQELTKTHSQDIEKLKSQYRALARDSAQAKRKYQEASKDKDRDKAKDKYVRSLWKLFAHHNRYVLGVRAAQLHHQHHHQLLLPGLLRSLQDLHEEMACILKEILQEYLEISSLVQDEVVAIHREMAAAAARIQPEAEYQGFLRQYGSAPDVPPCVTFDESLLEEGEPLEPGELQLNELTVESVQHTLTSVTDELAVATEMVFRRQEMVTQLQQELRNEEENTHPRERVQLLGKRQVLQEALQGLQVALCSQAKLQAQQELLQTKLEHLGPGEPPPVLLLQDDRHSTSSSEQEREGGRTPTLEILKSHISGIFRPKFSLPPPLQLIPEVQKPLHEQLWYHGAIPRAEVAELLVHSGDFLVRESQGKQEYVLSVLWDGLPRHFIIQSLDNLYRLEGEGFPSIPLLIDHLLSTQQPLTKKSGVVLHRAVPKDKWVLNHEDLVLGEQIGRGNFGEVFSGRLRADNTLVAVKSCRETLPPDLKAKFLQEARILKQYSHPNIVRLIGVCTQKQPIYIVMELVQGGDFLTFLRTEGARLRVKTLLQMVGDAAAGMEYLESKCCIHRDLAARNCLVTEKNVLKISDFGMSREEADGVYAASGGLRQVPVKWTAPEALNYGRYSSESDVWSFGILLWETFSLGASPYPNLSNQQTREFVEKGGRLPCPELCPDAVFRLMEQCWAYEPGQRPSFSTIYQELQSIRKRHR
Sequence of FGFR1 (P11362 whole entry, looked up): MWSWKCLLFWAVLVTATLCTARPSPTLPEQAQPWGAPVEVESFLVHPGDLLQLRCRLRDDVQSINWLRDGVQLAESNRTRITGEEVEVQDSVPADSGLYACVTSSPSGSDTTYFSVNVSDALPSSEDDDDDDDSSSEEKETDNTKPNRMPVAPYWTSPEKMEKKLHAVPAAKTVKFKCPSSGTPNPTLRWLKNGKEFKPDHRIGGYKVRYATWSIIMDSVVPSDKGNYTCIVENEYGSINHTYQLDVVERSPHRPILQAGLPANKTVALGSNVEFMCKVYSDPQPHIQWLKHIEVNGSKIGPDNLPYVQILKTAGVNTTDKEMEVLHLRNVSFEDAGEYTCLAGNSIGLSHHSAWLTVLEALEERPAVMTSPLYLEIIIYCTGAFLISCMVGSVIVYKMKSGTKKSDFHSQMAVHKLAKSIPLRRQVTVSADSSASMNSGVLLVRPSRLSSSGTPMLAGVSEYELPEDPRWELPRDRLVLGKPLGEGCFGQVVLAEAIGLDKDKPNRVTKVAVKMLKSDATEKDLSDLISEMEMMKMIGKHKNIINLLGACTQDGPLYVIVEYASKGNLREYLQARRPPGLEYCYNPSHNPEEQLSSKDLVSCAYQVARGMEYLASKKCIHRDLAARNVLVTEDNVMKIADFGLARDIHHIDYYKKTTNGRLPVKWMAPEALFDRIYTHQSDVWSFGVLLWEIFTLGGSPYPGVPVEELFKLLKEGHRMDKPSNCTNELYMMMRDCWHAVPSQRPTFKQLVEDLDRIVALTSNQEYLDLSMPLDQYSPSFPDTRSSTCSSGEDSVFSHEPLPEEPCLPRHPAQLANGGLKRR
Sequence of Fyn (P06241 whole entry, looked up): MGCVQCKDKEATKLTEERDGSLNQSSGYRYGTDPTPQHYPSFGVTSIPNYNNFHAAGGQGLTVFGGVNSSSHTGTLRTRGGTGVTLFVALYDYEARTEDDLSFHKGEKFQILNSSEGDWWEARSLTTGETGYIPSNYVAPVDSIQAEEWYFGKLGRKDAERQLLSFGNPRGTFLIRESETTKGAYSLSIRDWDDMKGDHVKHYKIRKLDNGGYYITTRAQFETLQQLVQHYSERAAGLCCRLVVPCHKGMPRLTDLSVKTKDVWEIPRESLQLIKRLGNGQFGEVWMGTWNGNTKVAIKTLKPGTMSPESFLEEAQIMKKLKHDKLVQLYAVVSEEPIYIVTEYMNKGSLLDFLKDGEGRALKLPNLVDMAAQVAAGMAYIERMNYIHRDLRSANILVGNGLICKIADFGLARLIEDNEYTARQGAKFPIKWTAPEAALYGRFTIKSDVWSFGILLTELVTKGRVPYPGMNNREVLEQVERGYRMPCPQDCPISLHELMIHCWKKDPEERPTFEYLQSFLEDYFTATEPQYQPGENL
Sequence of FGFR3 (P22607 whole entry, looked up): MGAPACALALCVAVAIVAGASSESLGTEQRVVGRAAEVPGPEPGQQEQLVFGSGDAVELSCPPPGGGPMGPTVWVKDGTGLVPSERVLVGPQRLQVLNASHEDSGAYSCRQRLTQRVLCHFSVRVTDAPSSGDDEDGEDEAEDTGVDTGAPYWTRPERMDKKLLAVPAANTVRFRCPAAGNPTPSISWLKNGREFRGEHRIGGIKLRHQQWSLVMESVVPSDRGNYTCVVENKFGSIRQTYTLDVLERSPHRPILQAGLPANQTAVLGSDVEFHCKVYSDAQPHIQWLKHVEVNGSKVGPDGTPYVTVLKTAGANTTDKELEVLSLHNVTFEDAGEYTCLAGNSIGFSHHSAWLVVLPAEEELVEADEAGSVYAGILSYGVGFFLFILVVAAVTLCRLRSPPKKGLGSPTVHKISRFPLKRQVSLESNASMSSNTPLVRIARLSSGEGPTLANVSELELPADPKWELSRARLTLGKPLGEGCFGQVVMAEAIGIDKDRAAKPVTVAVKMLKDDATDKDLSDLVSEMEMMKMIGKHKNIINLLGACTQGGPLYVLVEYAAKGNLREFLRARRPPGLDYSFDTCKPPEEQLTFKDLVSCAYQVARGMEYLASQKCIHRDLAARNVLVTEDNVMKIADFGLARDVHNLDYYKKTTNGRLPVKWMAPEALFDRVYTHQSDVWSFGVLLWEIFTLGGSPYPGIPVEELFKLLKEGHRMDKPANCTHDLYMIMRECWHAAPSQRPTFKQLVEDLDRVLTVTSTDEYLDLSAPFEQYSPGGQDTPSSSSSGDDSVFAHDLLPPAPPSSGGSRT

SH2 binding enrichment (Grb2 SH2)	SH2 binding enrichment (SHP2-C SH2)	SH2 binding enrichment (c-Src SH2)	Sequence	phosphorylation enrichment (AncSZ)	phosphorylation enrichment (EPHB1)	phosphorylation enrichment (EPHB2)	phosphorylation enrichment (FGFR1)	phosphorylation enrichment (FGFR3)	phosphorylation enrichment (Fer (mouse))	phosphorylation enrichment (Fes)	phosphorylation enrichment (Fyn)	phosphorylation enrichment (Hck)	phosphorylation enrichment (Jak2)	phosphorylation enrichment (MERTK)	phosphorylation enrichment (c-Abl (mouse))	phosphorylation enrichment (c-Src)
0.812	1.17	0.386	LAAAKYKLNVD [SMARCA2_Y1190]	0.444	0.426	0.336	0.322	0.556	0.52	0.766	0.262	0.181	0.42	0.309	0.593	0.489
1.1	2.41	0.869	KLVRLYAVVTR [LYN_Y306]	1.35	0.799	0.633	0.483	0.794	0.474	1.14	0.402	0.49	1.15	0.497	0.971	0.611
0.687	0.588	0.513	RRVEPYGENFN [APOA4_Y310]	1.23	0.521	0.385	0.421	0.655	0.542	1.2	0.487	0.45	0.965	0.561	0.707	0.643
0.856	0.508	0.472	SVTCTCSPALN [TP53_Y126_Y126C]	1.16	0.704	0.614	0.585	0.889	0.533	1.48	0.479	0.526	1.15	0.395	0.907	0.415
1.42	1.4	1	AVIADYMFWLG [SPATA16_Y290_M286V]	2.25	6.08	12.4	13.1	10.7	2	1.3	0.852	1.34	3.42	2.51	1.17	1.17
0.814	0.558	0.466	VKGGAYNPVTV [MCCC2_Y145_Y146N]	0.552	0.471	0.372	0.447	0.469	0.526	0.644	0.456	0.434	0.781	0.471	0.609	0.511
1.2	0.94	0.536	TDHLQYFDSNK [ARAP1_Y359_R358Q]	0.809	0.721	0.651	0.928	0.84	0.654	1.31	0.79	0.697	0.914	0.607	0.695	0.656
0.815	0.881	0.517	CGPLLYGLVHQ [PRKCG_Y122_S119P]	0.884	2.72	4.12	0.593	0.723	8.22	1.16	3.72	4.88	1.06	4.98	0.73	4.08
0.74	0.673	0.64	NLVSEYQQFQD [TUBB3_Y422_D417N_YF]	1.17	0.739	0.624	0.545	0.745	0.556	1.14	0.574	0.535	1.08	0.429	0.88	0.698
0.88	0.441	0.551	DTDSSYCIPIA [GAB1_Y373_T377I]	2.21	0.829	0.721	0.586	0.706	0.483	1.05	0.467	0.413	0.925	1.16	0.82	0.435
0.92	1.54	0.528	ADKSVYLMGLN [MYH7_Y386_A385V]	0.666	0.407	0.409	0.444	0.523	0.413	0.769	0.583	0.481	0.51	0.379	0.338	0.678
0.781	0.66	0.393	AHADEYGAEAL [HBA1_Y25_G23D]	0.97	0.538	0.403	0.398	0.564	0.412	1.1	0.458	0.511	0.96	0.536	0.791	0.46
0.928	0.686	0.628	AVAFVYFKSIG [ADGRL4_Y301_YF]	1.38	0.911	0.797	0.798	1.01	0.728	1.6	0.643	0.626	1.15	0.471	0.938	0.426
1.06	0.955	0.859	EQKKFYNAMKK [SCN5A_Y1495_YF]	0.484	0.299	0.317	0.394	0.339	0.34	0.576	0.325	0.367	0.569	0.379	0.52	0.373

Sequence	SH2 binding enrichment (Grb2 SH2)	SH2 binding enrichment (SHP2-C SH2)	SH2 binding enrichment (c-Src SH2)	phosphorylation enrichment (AncSZ)	phosphorylation enrichment (EPHB1)	phosphorylation enrichment (EPHB2)	phosphorylation enrichment (FGFR1)	phosphorylation enrichment (FGFR3)	phosphorylation enrichment (Fer (mouse))	phosphorylation enrichment (Fes)	phosphorylation enrichment (Fyn)	phosphorylation enrichment (Hck)	phosphorylation enrichment (Jak2)	phosphorylation enrichment (MERTK)	phosphorylation enrichment (c-Abl (mouse))	phosphorylation enrichment (c-Src)
RKGGSYTQAAS [HLA-A_Y344]	1.07	0.584	1.06	0.631	0.446	0.399	0.442	0.563	0.699	0.885	0.465	0.443	0.637	0.461	0.902	0.384
SIKDKYVTAFF [KCNH2_Y611_L615F_YF]	1.04	0.848	0.589	0.582	0.363	0.44	0.403	0.489	0.483	0.731	0.399	0.4	0.526	0.369	0.635	0.372
